Here are results for one substance from article PMC9833669.

pKd: −log10 of the molar value.

In this assay the target is recombinant extracellular domain of the human AXL protein (tyrosine protein kinase receptor UFO) (human) (UniProt P30530). As to the kind of experiment: BLI. For orientation: Biolayer interferometry detects binding as a change in optical thickness at a sensor tip.

With “GST-VP1u^(1-227aa) (glutathione S-transferase fused to the B19V VP1 unique region) (from UniProt Q9PZT0 1-227) (domain or fragment)”, the pKd was 6.99.

One may read the pKd as the negative decadic logarithm of the Kd, by convention in mol/L.
